# Measurements published in US20240228596A1 (VIB VZW, published 2024).
# B1: VHH72_h1_S56A (VHH)
# VHH: EVQLVESGGGLVQPGGSLRLSCAASGRTFSEYAMGWFRQAPGKEREFVATISWSGGATYYTDSVKGRFTISRDNAKNTVYLQMNSLRPEDTAVYYCAAAGLGTVVSEWDYDYDYWGQGTLVTVSS
# Biological target: SARS-COV-1 spike protein on VSV-delG pseudotyped particles (SARS-COV-1, UniProt P59594 14-1255)
# Test: cell-based or functional assay
binder,measurement,value
B1,IC50 Mean VSV-dG-spike SARS-COV-1,0.013 µg/mL
